According to PMC12815461 (2026):

B1: FLAG-tagged wild-type GMCL1 (germ cell-less protein-like 1) [human] / 53BP1 (p53-binding protein 1), endogenous in HEK293T [human (endogenous in HEK293T)] (parent complex)
chain 1: MGSLSSRVLRQPRPALAQQAQGARAGGSARRPDTGDDAAGHGFCYCAGSHKRKRSSGSFCYCHPDSETDEDEEEGDEQQRLLNTPRRKKLKSTSKYIYQTLFLNGENSDIKICALGEEWSLHKIYLCQSGYFSSMFSGSWKESSMNIIELEIPDQNIDVEALQVAFGSLYRDDVLIKPSRVVAILAAACLLQLDGLIQQCGETMKETVNVKTVCGYYTSAGTYGLDSVKKKCLEWLLNNLMTHQNVELFKELSINVMKQLIGSSNLFVMQVEMDIYTALKKWMFLQLVPSWNGSLKQLLTETDVWFSKQRKDFEGMAFLETEQGKPFVSVFRHLRLQYIISDLASARIIEQDAVVPSEWLSSVYKQQWFAMLRAEQDSEVGPQEINKEELEGNSMRCGRKLAKDGEYCWRWTGFNFGFDLLVTYTNRYIIFKRNTLNQPCSGSVSLQPRRSIAFRLRLASFDSSGKLICSRTTGYQILTLEKDQEQVVMNLDSRLLIFPLYICCNFLYISPEKKN
chain 2: MDPTGSQLDSDFSQQDTPCLIIEDSQPESQVLEDDSGSHFSMLSRHLPNLQTHKENPVLDVVSNPEQTAGEERGDGNSGFNEHLKENKVADPVDSSNLDTCGSISQVIEQLPQPNRTSSVLGMSVESAPAVEEEKGEELEQKEKEKEEDTSGNTTHSLGAEDTASSQLGFGVLELSQSQDVEENTVPYEVDKEQLQSVTTNSGYTRLSDVDANTAIKHEEQSNEDIPIAEQSSKDIPVTAQPSKDVHVVKEQNPPPARSEDMPFSPKASVAAMEAKEQLSAQELMESGLQIQKSPEPEVLSTQEDLFDQSNKTVSSDGCSTPSREEGGCSLASTPATTLHLLQLSGQRSLVQDSLSTNSSDLVAPSPDAFRSTPFIVPSSPTEQEGRQDKPMDTSVLSEEGGEPFQKKLQSGEPVELENPPLLPESTVSPQASTPISQSTPVFPPGSLPIPSQPQFSHDIFIPSPSLEEQSNDGKKDGDMHSSSLTVECSKTSEIEPKNSPEDLGLSLTGDSCKLMLSTSEYSQSPKMESLSSHRIDEDGENTQIEDTEPMSPVLNSKFVPAENDSILMNPAQDGEVQLSQNDDKTKGDDTDTRDDISILATGCKGREETVAEDVCIDLTCDSGSQAVPSPATRSEALSSVLDQEEAMEIKEHHPEEGSSGSEVEEIPETPCESQGEELKEENMESVPLHLSLTETQSQGLCLQKEMPKKECSEAMEVETSVISIDSPQKLAILDQELEHKEQEAWEEATSEDSSVVIVDVKEPSPRVDVSCEPLEGVEKCSDSQSWEDIAPEIEPCAENRLDTKEEKSVEYEGDLKSGTAETEPVEQDSSQPSLPLVRADDPLRLDQELQQPQTQEKTSNSLTEDSKMANAKQLSSDAEAQKLGKPSAHASQSFCESSSETPFHFTLPKEGDIIPPLTGATPPLIGHLKLEPKRHSTPIGISNYPESTIATSDVMSESMVETHDPILGSGKGDSGAAPDVDDKLCLRMKLVSPETEASEESLQFNLEKPATGERKNGSTAVAESVASPQKTMSVLSCICEARQENEARSEDPPTTPIRGNLLHFPSSQGEEEKEKLEGDHTIRQSQQPMKPISPVKDPVSPASQKMVIQGPSSPQGEAMVTDVLEDQKEGRSTNKENPSKALIERPSQNNIGIQTMECSLRVPETVSAATQTIKNVCEQGTSTVDQNFGKQDATVQTERGSGEKPVSAPGDDTESLHSQGEEEFDMPQPPHGHVLHRHMRTIREVRTLVTRVITDVYYVDGTEVERKVTEETEEPIVECQECETEVSPSQTGGSSGDLGDISSFSSKASSLHRTSSGTSLSAMHSSGSSGKGAGPLRGKTSGTEPADFALPSSRGGPGKLSPRKGVSQTGTPVCEEDGDAGLGIRQGGKAPVTPRGRGRRGRPPSRTTGTRETAVPGPLGIEDISPNLSPDDKSFSRVVPRVPDSTRRTDVGAGALRRSDSPEIPFQAAAGPSDGLDASSPGNSFVGLRVVAKWSSNGYFYSGKITRDVGAGKYKLLFDDGYECDVLGKDILLCDPIPLDTEVTALSEDEYFSAGVVKGHRKESGELYYSIEKEGQRKWYKRMAVILSLEQGNRLREQYGLGPYEAVTPLTKAADISLDNLVEGKRKRRSNVSSPATPTASSSSSTTPTRKITESPRASMGVLSGKRKLITSEEERSPAKRGRKSATVKPGAVGAGEFVSPCESGDNTGEPSALEEQRGPLPLNKTLFLGYAFLLTMATTSDKLASRSKLPDGPTGSSEEEEEFLEIPPFNKQYTESQLRAGAGYILEDFNEAQCNTAYQCLLIADQHCRTRKYFLCLASGIPCVSHVWVHDSCHANQLQNYRNYLLPAGYSLEEQRILDWQPRENPFQNLKVLLVSDQQQNFLELWSEILMTGGAASVKQHHSSAHNKDIALGVFDVVVTDPSCPASVLKCAEALQLPVVSQEWVIQCLIVGERIGFKQHPKYKHDYVSH

Variants of: B1
Assay: IP-MS (FLAG immunoprecipitation, MS/MS); HEK293T, 24 hr after transfection; read off a plot

| Variant | screen value |
| --- | --- |
| chain 1 MGSLSSRVLRQPRPALAQQAQGARAGGSARRPDTGDDAAGHGFCYCAGSHKRKRSSGSFCYCHPDSETDEDEEEGDEQQRLLNTPRRKKLKSTSKYIYQTLFLNGENSDIKICALGEEWSLHKIYLCQSGYFSSMFSGSWKKSSMNIIELEIPDQNIDVEALQVAFGSLYRDDVLIKPSRVVAILAAACLLQLDGLIQQCGETMKETVNVKTVCGYYTSAGTYGLDSVKKKCLEWLLNNLMTHQNVELFKELSINVMKQLIGSSNLFVMQVEMDIYTALKKWMFLQLVPSWNGSLKQLLTETDVWFSKQRKDFEGMAFLETEQGKPFVSVFRHLRLQYIISDLASARIIEQDAVVPSEWLSSVYKQQWFAMLRAEQDSEVGPQEINKEELEGNSMRCGRKLAKDGEYCWRWTGFNFGFDLLVTYTNRYIIFKRNTLNQPCSGSVSLQPRRSIAFRLRLASFDSSGKLICSRTTGYQILTLEKDQEQVVMNLDSRLLIFPLYICCNFLYISPEKKN [chain 1 E142K] | ~180 |
